From PMC11294625, “The kinesin-3 KIF1C undergoes liquid-liquid phase separation for accumulation of specific transcripts at the cell periphery”

T1: KIF1C(CC4+IDR)-mNG (Homo sapiens, UniProt O43896 785-1103)
T1 sequence: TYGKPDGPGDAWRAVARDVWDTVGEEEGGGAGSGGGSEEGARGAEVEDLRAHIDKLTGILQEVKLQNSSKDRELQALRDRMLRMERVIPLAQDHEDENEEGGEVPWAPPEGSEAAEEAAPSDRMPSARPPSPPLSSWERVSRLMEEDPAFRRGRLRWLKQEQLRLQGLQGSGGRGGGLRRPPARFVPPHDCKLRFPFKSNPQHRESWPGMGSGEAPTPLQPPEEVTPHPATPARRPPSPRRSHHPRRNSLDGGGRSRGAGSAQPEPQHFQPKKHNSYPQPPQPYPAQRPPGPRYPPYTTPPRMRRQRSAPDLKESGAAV


Legend:
KIF1C(CC4+IDR)-mNG [1] = biological target: T1, KIF1C(CC4+IDR)-mNG; assay: in vitro condensate recruitment (fluorescence microscopy); 15-60 nM RNA, 100 nM protein, 100 mM NaCl; selectively enriched in condensates; 100 nM KIF1C(CC4+IDR)-mNG in 100 mM NaCl buffer, no crowding agent; pH and temperature of the assay not given in the material; conditions: protein: recombinant; tags: C-terminal mNeonGreen; His-SUMO removed by TEV; chain copies: 2; label: 5'-Cy5; single strand
KIF1C(CC4+IDR)-mNG [2] = biological target: T1, KIF1C(CC4+IDR)-mNG; assay: in vitro condensate recruitment (fluorescence microscopy); 120-600 nM RNA, 100 nM protein, 100 mM NaCl; enriched (condensates inhibited at uM RNA); 100 nM KIF1C(CC4+IDR)-mNG in 100 mM NaCl buffer, no crowding agent; pH and temperature of the assay not given in the material; conditions: protein: recombinant; tags: C-terminal mNeonGreen; His-SUMO removed by TEV; chain copies: 2; label: 5'-Cy5; single strand

Row | Binder | binding result (KIF1C(CC4+IDR)-mNG [1]) | binding result (KIF1C(CC4+IDR)-mNG [2])
1 | GUGUGUGUGUGU (ssRNA, methylation at each nucleotide (printed mG/mU, probably 2'-O-methyl)) [GU-rich RNA oligo, Cy5-(GU)6] | binds | –
2 | AAAAAAAAAAAAA (ssRNA, methylation at each nucleotide (printed mA, probably 2'-O-methyl)) [polyA RNA oligo, Cy5-A13] | – | binds
